According to patent publication US20160194394A1 (GOVERNING COUNCIL OF THE UNIVERSITY OF TORONTO, published 2016):
Where a chain is given by its changes, count along the chain named.

B1: D11 (Fab)
light: DIQMTQSPSSLSASVGDRVTITCRASQSVSSAVAWYQQKPGKAPKLLIYSASSLYSGVPSRFSGSRSGTDFTLTISSLQPEDFATYYCQQYFPSGLITFGQGTKVEIKRTVAAPSVFIFPPSDSQLKSGTASVVCLLNNFYPREAKVQWKVDNALQSGNSQESVTEQDSKDSTYSLSSTLTLSKADYEKHKVYACEVTHQGLSSPVTKSFNRGECGGS
heavy: EVQLVESGGGLVQPGGSLRLSCAASGFNISYSYMHWVRQAPGKGLEWVASISPSSGYTSYADSVKGRFTISADTSKNTAYLQMNSLRAEDTAVYYCARSVSWWYSWWSWGMDYWGQGTLVTVSSASTKGPSVFPLAPSSKSTSGGTAALGCLVKDYFPEPVTVSWNSGALTSGVHTFPAVLQSSGLYSLSSVVTVPSSSLGTQTYICNVNHKPSNTKVDKKVEPKSC
notes: selection round 3; also called Fzd7-R3-D11
B2: G9 (Fab)
light: B1 light with F92Y, P93Y, G95S, L96P
heavy: EVQLVESGGGLVQPGGSLRLSCAASGFNISYYYIHWVRQAPGKGLEWVAYISPSSGYTSYADSVKGRFTISADTSKNTAYLQMNSLRAEDTAVYYCARGYPVYSWVWSFGAFDYWGQGTLVTVSSASTKGPSVFPLAPSSKSTSGGTAALGCLVKDYFPEPVTVSWNSGALTSGVHTFPAVLQSSGLYSLSSVVTVPSSSLGTQTYICNVNHKPSNTKVDKKVEPKSC
notes: selection round 3; also called Fzd7-R3-G9
B3: F3 (Fab)
light: B1 light with Y91G, F92G, P93H, S94Y, G95W
heavy: EVQLVESGGGLVQPGGSLRLSCAASGFNISYSSMHWVRQAPGKGLEWVASISSSYGYTSYADSVKGRFTISADTSKNTAYLQMNSLRAEDTAVYYCARSYYGYYVGYGYSSWSGSGMDYWGQGTLVTVSSASTKGPSVFPLAPSSKSTSGGTAALGCLVKDYFPEPVTVSWNSGALTSGVHTFPAVLQSSGLYSLSSVVTVPSSSLGTQTYICNVNHKPSNTKVDKKVEPKSC
notes: selection round 3; also called Fzd7-R3-F3
B4: E9 (Fab)
light: B1 light with Y91A, F92V, P93Y, S94H, G95A
heavy: EVQLVESGGGLVQPGGSLRLSCAASGFNIYYSSMHWVRQAPGKGLEWVASISSYSSSTYYADSVKGRFTISADTSKNTAYLQMNSLRAEDTAVYYCARSAVVHYPAGYWVYWGWYAFDYWGQGTLVTVSSASTKGPSVFPLAPSSKSTSGGTAALGCLVKDYFPEPVTVSWNSGALTSGVHTFPAVLQSSGLYSLSSVVTVPSSSLGTQTYICNVNHKPSNTKVDKKVEPKSC
notes: selection round 3; also called Fzd7-R3-E9
B5: B10 (Fab)
light: DIQMTQSPSSLSASVGDRVTITCRASQSVSSAVAWYQQKPGKAPKLLIYSASSLYSGVPSRFSGSRSGTDFTLTISSLQPEDFATYYCQQYWASLITFGQGTKVEIKRTVAAPSVFIFPPSDSQLKSGTASVVCLLNNFYPREAKVQWKVDNALQSGNSQESVTEQDSKDSTYSLSSTLTLSKADYEKHKVYACEVTHQGLSSPVTKSFNRGECGGS
heavy: EVQLVESGGGLVQPGGSLRLSCAASGFNISYYYIHWVRQAPGKGLEWVAYISPYYGSTYYADSVKGRFTISADTSKNTAYLQMNSLRAEDTAVYYCARSWSYSYYYSHPGWSPVWAMDYWGQGTLVTVSSASTKGPSVFPLAPSSKSTSGGTAALGCLVKDYFPEPVTVSWNSGALTSGVHTFPAVLQSSGLYSLSSVVTVPSSSLGTQTYICNVNHKPSNTKVDKKVEPKSC
notes: selection round 3; also called Fzd7-R3-B10
B6: D9 (Fab)
light: B5 light with Y91S, W92S, A93Y
heavy: EVQLVESGGGLVQPGGSLRLSCAASGFNLSYSSMHWVRQAPGKGLEWVASIYSSYSSTSYADSVKGRFTISADTSKNTAYLQMNSLRAEDTAVYYCARGAGYYWWHYYYVHGAMDYWGQGTLVTVSSASTKGPSVFPLAPSSKSTSGGTAALGCLVKDYFPEPVTVSWNSGALTSGVHTFPAVLQSSGLYSLSSVVTVPSSSLGTQTYICNVNHKPSNTKVDKKVEPKSC
notes: selection round 3; also called Fzd7-R3-D9
B7: B2 (Fab)
light: B5 light with Y91S, W92S, A93Y
heavy: EVQLVESGGGLVQPGGSLRLSCAASGFNLSYSYMHWVRQAPGKGLEWVASIYSSYGYTSYADSVKGRFTISADTSKNTAYLQMNSLRAEDTAVYYCARYYGWAYYYSYFPAWAGGGIDYWGQGTLVTVSSASTKGPSVFPLAPSSKSTSGGTAALGCLVKDYFPEPVTVSWNSGALTSGVHTFPAVLQSSGLYSLSSVVTVPSSSLGTQTYICNVNHKPSNTKVDKKVEPKSC
notes: selection round 3; also called Fzd7-R3-B2
B8: G7 (Fab)
light: DIQMTQSPSSLSASVGDRVTITCRASQSVSSAVAWYQQKPGKAPKLLIYSASSLYSGVPSRFSGSRSGTDFTLTISSLQPEDFATYYCQQYGYWWVSLFTFGQGTKVEIKRTVAAPSVFIFPPSDSQLKSGTASVVCLLNNFYPREAKVQWKVDNALQSGNSQESVTEQDSKDSTYSLSSTLTLSKADYEKHKVYACEVTHQGLSSPVTKSFNRGECGGS
heavy: EVQLVESGGGLVQPGGSLRLSCAASGFNLYYYSIHWVRQAPGKGLEWVASIYSYSSYTYYADSVKGRFTISADTSKNTAYLQMNSLRAEDTAVYYCARWWPGHYSGYGSGALDYWGQGTLVTVSSASTKGPSVFPLAPSSKSTSGGTAALGCLVKDYFPEPVTVSWNSGALTSGVHTFPAVLQSSGLYSLSSVVTVPSSSLGTQTYICNVNHKPSNTKVDKKVEPKSC
notes: selection round 3; also called Fzd7-R3-G7
B9: B9 (Fab)
light: B8 light with Y91W, G92W, Y93A, W94S, W95G, S97G, L98P
heavy: EVQLVESGGGLVQPGGSLRLSCAASGFNLYSSSIHWVRQAPGKGLEWVAYISSYYSSTYYADSVKGRFTISADTSKNTAYLQMNSLRAEDTAVYYCARPAMDYWGQGTLVTVSSASTKGPSVFPLAPSSKSTSGGTAALGCLVKDYFPEPVTVSWNSGALTSGVHTFPAVLQSSGLYSLSSVVTVPSSSLGTQTYICNVNHKPSNTKVDKKVEPKSC
notes: selection round 3; also called Fzd7-R3-B9

target: T1, recombinant Frizzled receptor 7 (FZD7) cysteine-rich domain (CRD) fused to the Fc region of human IgG (human, UniProt O75084 33-185); test: ELISA, 1ug/ml (20nM) Fab [cont'd]
Method: (§1) FIG. 2B is a table depicting the binding of purified Fabs to purified FZD7-Fc measured by ELISA. Fabs purified from 25 ml bacterial cultures were assayed for binding to FZD7-Fc fusion protein (R&D systems) and Fc protein. ELISA plates (384 well) were coated with 2 ug/ml of protein in PBS overnight at four degrees. Wells were blocked with 0.5% BSA/PBS for 1 hour at room temperature, washed three times with 0.05% Tween20/PBS (wash buffer), and then primary dilutions of Fabs in 0.5% BSA/0.05% Tween20/PBS (dilution buffer) were added at indicated concentrations. Fabs were incubated for 1 hour at room temperature, wells were washed six times, and anti-FLAG-HRP (Sigma) was added at 1:5000 in dilution buffer. Secondary antibody was incubated for 45 minutes at room temperature, and wells were washed six times and developed with TMB substrate with an acid stop. The absorbance at 450 nm was read. n.t.=not tested.

| OD 450 | Binder |
| --- | --- |
| 1.42 | B1 |
| 3.12 | B2 |
| 2.35 | B3 |
| 3.09 | B4 |
| 3.22 | B5 |
| 3.05 | B6 |
| 2.92 | B7 |
| 1.9 | B8 |
| 3.22 | B9 |

target: T2, Fc control protein; test: ELISA, 1ug/ml (20nM) Fab [cont'd]
T2 construct: also called Fc protein; control Fc protein
Method: as §1

| OD 450 | Binder |
| --- | --- |
| 0.06 | B1 |
| 0.06 | B2 |
| 0.06 | B3 |
| 0.07 | B4 |
| 0.06 | B5 |
| 0.06 | B6 |
| 0.06 | B7 |
| 0.06 | B8 |
| 0.05 | B9 |

target: T1, recombinant Frizzled receptor 7 (FZD7) …; test: ELISA, 10ug/ml (200nM) Fab [cont'd]
Method: as §1

| OD 450 | Binder |
| --- | --- |
| 2.79 | B1 |
| 3.21 | B2 |
| 2.97 | B3 |
| 3.2 | B4 |
| 3.24 | B5 |
| 3.12 | B6 |
| 3.18 | B7 |
| 2.98 | B8 |
| 3.26 | B9 |

target: T2, Fc control protein; test: ELISA, 10ug/ml (200nM) Fab [cont'd]
Method: as §1

| OD 450 | Binder |
| --- | --- |
| 0.15 | B1 |
| 0.16 | B2 |
| 0.07 | B3 |
| 0.1 | B4 |
| 0.06 | B5 |
| 0.09 | B6 |
| 0.1 | B7 |
| 0.13 | B8 |
| 0.06 | B9 |

target: T3, FZD7 receptor expressed on cells (full-length) (UniProt O75084 33-574, limits assumed); test: flow cytometry, 200 nM Fab, MDA MB 231 [cont'd]
T3 construct: whole, on cells; MDA MB 231 cells may carry other Frizzled receptors too; also called full-length FZD7 receptor; endogenous receptor on MDA MB 231 cells
Method: (§2) FIG. 3 is a table depicting the binding of the purified Fabs to cells expressing FZD7 (flow cytometry). Small scale Fabs were assayed for binding to full-length FZD7 receptor to an over-expression line in MDA MB 231 cells. In parallel, Fabs were assayed for binding to endogenous receptor expressed on the MDA MB 231 cells. Cells were harvested using an EDTA solution, blocked in 2% FBS/PBS (stain buffer), and stained with 200 nM Fab for 30 min on ice. Cells were washed two times with stain buffer and incubated with anti-F(ab′)₂-APC secondary antibody (Jackson Immuno) at 1:1000 for 15 minutes on ice. All antibodies were diluted in stain buffer. Cells were washed three times with stain buffer and then fixed with 1% paraformaldehye for analysis by flow cytometry. […] The percent of the cell population within the positive gates is indicated.

| % population within the positive gate [%] | Binder |
| --- | --- |
| 1.2 | B1 |
| 6.1 | B2 |
| 1 | B3 |
| 96.6 | B4 |
| 98.2 | B5 |
| 0.7 | B6 |
| 15.9 | B7 |
| 15.3 | B8 |
| 46.7 | B9 |

target: T3, FZD7 receptor expressed on cells …; test: flow cytometry, 200 nM Fab, FZD7 over-expression line (MDA MB 231) [cont'd]
Method: as §2

| % population within the positive gate [%] | Binder |
| --- | --- |
| 81 | B1 |
| 84.7 | B2 |
| 82.5 | B3 |
| 87.1 | B4 |
| 93.7 | B5 |
| 80.9 | B6 |
| 86.2 | B7 |
| 84.2 | B8 |
| 91.5 | B9 |
